Test results: publication PMC2173603

Molecular target: L1-CFP (CFP tagged to the COOH terminus of human L1-CAM) (human) (UniProt P32004)
Experiment: FRET or BRET

Sequence of UniProt P32004 (P32004 20-1257): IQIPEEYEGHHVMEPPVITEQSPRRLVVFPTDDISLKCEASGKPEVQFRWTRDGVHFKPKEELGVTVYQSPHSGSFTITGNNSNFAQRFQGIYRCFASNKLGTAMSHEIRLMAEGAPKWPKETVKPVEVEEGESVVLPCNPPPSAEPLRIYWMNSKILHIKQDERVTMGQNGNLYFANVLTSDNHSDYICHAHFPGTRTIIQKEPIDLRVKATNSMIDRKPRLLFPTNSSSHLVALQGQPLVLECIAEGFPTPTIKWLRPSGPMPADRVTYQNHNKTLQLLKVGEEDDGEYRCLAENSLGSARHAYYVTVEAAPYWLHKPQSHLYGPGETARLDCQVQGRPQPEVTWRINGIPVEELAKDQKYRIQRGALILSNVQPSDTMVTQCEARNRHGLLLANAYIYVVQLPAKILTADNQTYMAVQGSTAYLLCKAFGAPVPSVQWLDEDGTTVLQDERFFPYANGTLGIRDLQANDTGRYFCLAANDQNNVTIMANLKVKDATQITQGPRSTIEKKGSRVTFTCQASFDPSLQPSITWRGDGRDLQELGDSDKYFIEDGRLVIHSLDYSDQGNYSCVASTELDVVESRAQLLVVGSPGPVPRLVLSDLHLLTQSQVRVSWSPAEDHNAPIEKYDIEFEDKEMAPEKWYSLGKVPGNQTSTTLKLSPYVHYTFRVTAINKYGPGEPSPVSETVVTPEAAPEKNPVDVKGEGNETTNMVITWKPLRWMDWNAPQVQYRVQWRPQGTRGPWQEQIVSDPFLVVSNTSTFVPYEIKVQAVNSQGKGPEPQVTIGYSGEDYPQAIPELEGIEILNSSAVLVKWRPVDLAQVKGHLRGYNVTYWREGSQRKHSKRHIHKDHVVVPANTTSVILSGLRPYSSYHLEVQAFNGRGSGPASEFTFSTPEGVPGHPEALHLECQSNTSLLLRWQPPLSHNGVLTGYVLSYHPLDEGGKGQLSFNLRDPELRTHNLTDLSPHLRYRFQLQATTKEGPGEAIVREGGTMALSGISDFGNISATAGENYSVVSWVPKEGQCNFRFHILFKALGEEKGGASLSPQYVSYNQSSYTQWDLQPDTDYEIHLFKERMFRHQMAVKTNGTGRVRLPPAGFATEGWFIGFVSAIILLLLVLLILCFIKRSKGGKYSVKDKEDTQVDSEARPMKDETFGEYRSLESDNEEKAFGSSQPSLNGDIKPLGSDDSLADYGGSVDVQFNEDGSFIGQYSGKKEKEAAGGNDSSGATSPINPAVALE

With “Venus-ankyrinB (Venus tagged to the NH2 terminus of human ankyrinB) (natural protein)” the percent of ankyrinB clusters with FRET^E >8% was 29.4%.
